# Test: soluble on expression in E. coli; label from the status in PepcDB or PDB records
row,Sequence,soluble on expression in E. coli
1,MSDITTKSTKQTESLVCGEFKALGPAPYYVGDEIIVMRCAETINEIFSDWTKRANLDENKYTPFDVNAPIELPRRTDMLKSYNLDPPINETGKIASKMIARELCDRHAIPSVIFCSPDFASVETAHLIKSYIGEKCGAIRIEPELSTLHKSAHVFFGPNHFTSLGYGIDEKNPLHAVSDGVSLSDLVNRIKRAFYELTSKVDNALIIVDSLSMMIISSLFHNVYIRNDSSVDLERLRSLASFPSLSNFTAYRVGGQTGVKTYDLTSTCLRPLTFTGFSNEIDLE,not soluble
2,GPGSMIAILFGFTLGTAVGACNRAHYSSYGSSVYIAPLPSNSHNSLAFMDIARYRAGLFTTHQSVCGRVVIELFDSISPVSTTNFRGLCQGKHGTSGTGHKLCYSGTRLLPNECFIRGGDVTFGSAAGGWSIYGRSFREMAKGSSSSSRSSDVKGKGLVYAVGANAQWGSEFLITVDGFTPGEDHILLGQVVEGYDVLQRLQQQSLLPHAKRFIHYRILKAGVLKEAETPNYGKGSAFLRF,not soluble
3,MSLANLNIFGQEVGADVEGWTTRAFPEKVVLKGNTCRLEPLDRERHGSELFSAYSEAGQKLWTYLPAGPFTNLEEYLEFIKELNETKDTVPFAIINKETERAVGTLCLIRIDEANGSLEVGYVVFSPELQKTIIATEAQFLLMKYVFDDLQYRRYEWKCDSLNGPSRRAAMRLGFKYEGTFRQVVVYKGRTRDTQWFSIIDKEWLRIRKTFEEWLDKTNFENGKQKRGIAAIRESLSNEGHHHHHH,soluble
4,MGSDKIHHHHHHMKKLRIAQVSPLIESVPPKKYGGTERVVYYLTEGLVERGHEVTLFASGDSATSARLIAPVKESLRLGRKIHSTTIMHMLMLSKVYEEMAGEFDIIHSHLEYLTLPYASCSRTPTVLTMHGRLDLPDYADILKRYSSMAWVSISDSQRAPVPDINWVGTIYHGYPENLFEFNPDPEDYFLYLGRFSEEKRPDEAIRLARACKIHLKLAAKIDTADKAYFKAKVEPLLDSPYIEYVGEVGDSRKGELLRNAKALLNTIDWPEPFGLVMIEALACGTPVIVRRCGSSPEVITHGVTGFICDSQLDFIRAIHNIGTISRIACRREFEQRFTLRHMVDNYETLYRKVIAASSATDSLSSLP,not soluble
5,MSLYKQTSIFDAKFDKNRPLADRMRPRTLDEFVGQEHILGKGKALRELIEKDSITSMILWGPPGVGKTTLAMIIANMTNSKFVNFSAVLSGIKEIKEIMAQAERDAMYGQRTVVFIDEIHRFNKAQQDAFLPHVEKGNIILIGATTENPSFEVNSALLSRSKVFMMKPLDVKDIMIILKRALKDEERGLGLYNVEIDEEKLEKIALFSNGDARVALNTLEMAVMAANVVNGKRVVTDEILSDVMQKKALLYDKAGEEHYNLISAFHKSLRNSDWDAALYWMARMLEAGEDPLYIARRMIRFASEDVGLADPQALSVAIAAYEASHYIGMPECSVNLAQAAVYLALAPKSNALYVAYNRVKKDAEETFAEPVPMHLRNAPTKLMKELGYGEGYKYAHDFEEKVTDMECLPENLKGRRYYIPTDSGFEKKLKERMEEILKLKGEGHHHHHH,soluble
6,MRSIPLCQLLLLLTILSIDARPSDHFLSFSKTELCAAEPHLKVCQPNSRAQSSKIINGDGLTAERLEQLSKHSNKGFIEEEANSGRSSAASNVDDPFEDVATRAPPSSNEYEEERYSHRKHKHHHRKSHRGHHYGSPYQQYYQQQQHHDPLTYRVYPGLHPKDGRYCSDMKGMFAYTCAPSKPLRIDLVEFCKDYAAFCNVPNFHRLPGPRMGPPLTDKGVGHVDVNGHFGFGVGAVPGLEVGVGWGVDVGPIPGMGESVGVGVGLDLGIMGSKTPEAFRRGQDDPNAKGGGIVGINGGVGVKAPGTGDGVGVGTGLGVGK,not soluble
7,MGSDKIHHHHHHMSDSVSIAKYMHRDCLHCPAPLVGTSFKPCHFADIVDNGLQDGFFEVHAENYMGKGGPPHRALSALRETYPVSVHGVCLSIGGPSPLDAHHLARFRDVVARYEPVLVSEHLAWSSHGGAFYNDLLPLPYTKATLDRVCAHVDQIQEAIARPLLLENPSTYVGFASSTMSETEFIAAVAGRTGCGLLLDINNAFVSATNHGCSAADYLADFPLEQVGEIHLAGHSEQRDDEDEPLLIDSHDRPIAGPVWALYASVIARTGPVPTLVEWDSQLPDWLVLRAQALEARRIMDAAVASPVEVADHAL,not soluble
8,MGSDKIHHHHHHMAPRIKTRDRIAQASLELFNAQGERSVTTNHIATHLGISPGNLYYHYPNKQAIIAELFAEYESHVESFLRLPEGRGLTVDDKTFYLEALLAAMWRYRFLHRDLEHLLESDPELAARYRAFAQRCLVNAKAIYRGFTEAGILRMNETQLEALTLNAWIILTSWVRFLCTTLDLDGDLSEAQLRRGIYQVLALESGHIEAQAQDAVDGISERLYVPL,not soluble
9,MTESFADLFEQSLQTLEFRPGSIVRGTVVAIENGMVLVDAGLKSESPIPAEQFKNAQGVLEIAVGDEVDVALDSVEDGFGETQLSREKAKRHEAWIVLEKAYEDAETVIGIINGKVKGGFTVELNGIRAFLPGSLVDVRPVRDTAHLEYKELEFKVIKLDQKRNNVVVSRRAVIESESSAERDALLENLQEGQAVKGIVKNLTDYGAFVDLGGVDGLLHITDMAWKRVKHPSEIVNVGDEINVKVLKYDRERTRVSLGLKQLGEDPWLEISKRYPENTKLTGRVTNLTDYGCFVEIEEGVEGLVHVSEMDWTNKNIHPSKVVNLGDEVEVLVLDIDEERRRISLGLKQCKTNPWDDFATRYNKGDKVSGKIKSITDFGIFIGLDGGIDGLVHLSDISWNGTGEDAVSEYKKGDEIHAVVLSVDPERERISLGVKQTEDDPFNAYLADKKKGTIVHGTVSAVDAKGVTVELADTVEGYIRVADISRERIEDASTVYSVGDAIEAKFMGVDRKNRSISLSIKAKDEAEEKEVMATLNKQEDAVISNAMAEAFKAARKLEHHHHHH,soluble
10,METPKGTIIFTTVGRTHYGFDVFSLNIATSVERRLTDGVSVNFNAQFVNDKSDDVVFVSERNGSARIYKTRSGISKPEQIPGAPESYFHDRPIITQNNRLYFISAHEQPDRYFKNWSALYTVELNSAKREVTRVTPPDTADFSPAVSQSGDFLAVASYGTRSWGGEFHEINTDITVFKASKPETRVVICERGGWPTWSGDSTVFFHHQADDGWWSIFRVDIPENFTEYTDFPITPIRVTPSGLHCFTPAAFRDGKRIALATRRRGVNHRHIEIYDLENTTFQPVTESLNPSFHHYNPFVSPDSEFLGYHRFRGESTQGESIVPNIESIVSPIKTLRLLRINGSFPSSSPNGDLIALNSDFDINGGIKVSKSDGSKRWTLIKDRTAFYNSWSPTERHVIYTSLGPIFSPARIAVQIARIKFDPSDLTADKEDLPCDVKILTLENTGNNAFPSCSPDGKSIVFRSGRSGHKNLYIVDAVNGESNGGGIRRLTDGPWIDTMPCWSPKGDLIGFSSNRHNPENTAVFGAYVVRPDGTGLRRIQISGPEGSEEAARERVNHVSFNKDGDWLVFAANLSGVTAEPVTMPNQFQPYGDLYVVKLDGTGLRRLTWNGYEDGTPTWHTADELDLSQLNLNGQDGDKLEGQFEEPLWISCDI,soluble
11,MAHHHHHHMLRVSCRFFGALQEIFSRGQGVWNLDFGNSPTTEDLIFNSAPKTSTPPFHVLDLEGNIVNKINEPVVPKETLVKIMETMIRSNTIDNILLEAQRQGRISFYLTALGEEATVVGTAAGLEIRDEAFLQYREAGFLLYRGYNIPQLVAQCMGNVEDVLKGRQMPIHYGSRELNVHMVSSPLATQIPHAAGAGYAFRLENEELSDESKSRVAVVIFGEGAASEGDFHGGVNFAAATGSNTLFVVRNNGYAISTPARVQYKGDGVLARGIGYGIPSARVDGQDVLAILQAVQQARQIIRTTNQPVLIEALCYRLQHHSSSDDSGMYRSSDEIENFLALSPLDRFEKFLVKRDLWTAEHTGALAKQVREELLQELRRQELLPHWPADVMHDDVYKVKTPDLVKAQKELQAHYERNRGFYGK,not soluble
12,MGSDKIHHHHHHMSRFFRHYQAFHAIIETGTVTGAAERLGVSQPAISNLLAQLERRTRLKLFERNRGRLLPTPEAMVLFDEIDTVIRGLGQVSQAVVDLQNQKAGQLQVATNHAMAFGFMPEQIARFAADKPNLTVAFQSQYSAKIQDWVMAGLFEIGICEQPVRTDGLDWVPFFFEIQCAVPADSPLARHEELTPILLDDVPFIVMGADHMVTRRAREAFHREGANLRIRCQTDLFRNALNLVKQGLGVTLVDPFTLSSDDRSGYVLRRFAPRILLDVIIVTARGRPISAIGAQFLEQVSASMTTLATAAPDPAEP,not soluble

# From the DeepSol protein solubility set
